Test results from patent US20250019422A1 (MAX PLANCK GESELLSCHAFT ZUR F RDERUNG DER WISSENSCHAFTEN E V, published 2025).

B1: Re6H06 (VHH)
VHH: QVQLVESGGGLVQPGGSLRLSCAASGVTLDYYAIGWFRQAPGKEREGVSCTSSSDGSTYYADSVKGRFTISRDNAKNTVYLQMNSLKPEDTGVYYCAVVPQTYYGGKYYSQCTANGMDYWGKGTLVTVSS
B2: Re5D06 (VHH)
VHH: QVQLVESGGGLVQPGGSLRLSCAASGITLDYYAIGWFRQAPGKEREGVSRIRSSDGSTNYADSVKGRFTMSRDNAKNTVYLQMNSLKPEDTAVYYCAYGPLTKYGSSWYWPYEYDYWGQGTQVTVSS
B3: Re9B09 (VHH)
VHH: QVQLVESGGGLVQPGGSLRLSCAASGFTLDYYAIGWFRQAPGKEREGVSRISSSDGSTDYADSVKGRFTISRDNAKNTVYLQMNSLKPEDTAVYYCATVPGTYYSGNWYYTWHPEAVDYWGKGTQVTVSS
notes: also called ReB09
B4: Re32F02 (VHH)
VHH: QVQLVESGGGLVSPGGSLKLSCAASGLTLDYYGIGWFRQVPGKEREGVSCLGVPDNRTLYAPSVKGRFTISRDNAKNTYYLEMNSLNPEDSAVYYCAAGPVVPGHMCRIPTPLGYDYWGQGTLVTVSS
B5: Re5D06R15 (VHH)
VHH: QVQLVESGGGLVQPGGSLRLSCAASGITLDYYAMGWFREAPGKEREGVARIRNSDGSTNYADSVKGRFTMSRDNAKDTYYLQMNSLEPEDTADYYCAYGPLTKYGSSWYWPYEYDYWGQGTQVTVSS
B6: Re31A12 (VHH)
VHH: QVQLVESGGGLVQSGGSLRLSCLTSGVTLDYYAIGWFRQAPGKEREGVSCTSSSDGSTNYSDSVKGRFIISRDNAKNTVYLQMNSLKPEDTAVYYCAVTPATYYGGRYYFQCPYHDMHYWGKGTLVTVSS
B7: Ma2E06 (VHH)
VHH: QVQLVESGGDLVQPRGSLRLSCAASGITLDYYAIGWFRQAPGKEREGVSYISNTNDKTDYADSVKGRFTISRDNAENTVFLQMNSLQPEDTAVYYCATVPGTYYGGRWYYTWHPEAVRYWGKGTQVTVSS
notes: also called Ma02E06
B8: Re32C08 (VHH)
VHH: QVQLVESGGGLVQPGGSLRLSCETSGITLDYYAIGWFLQAPGKEREGVACMRNWDGSTVYAPSVKGRFTISRDNDKKAAYLEMNSLKSEDTGVYYCAAGPLPPGHSCRIPTPLGYDDWGQGTQVTVSS
B9: Re32A10 (VHH)
VHH: QVQLVESGGGLVQPGGSLRLSCATSGITLDYYAIGWFLQAPGKEREGVSCMRSSDGSTVYAPSVKGRFTISRDNAKKMVYLEMNSLKSEDTGVYYCAAGPLPPGTSCRIPTPLGYDDWGQGTQVTVSS
B10: Re32B02 (VHH)
VHH: QVQLVESGGGLVQPGGSLRLSCATSGITLDYYAIGWFLQAPGKEREGVSCMRSSDGSTVYAPSVKGRFTISRDNAKKMVYLEMNSLKSEDTGVYYCAAGPLPPGTSCRIPTPLGYDDWGQGTQVTVSS
B11: Ma6F06 (VHH)
VHH: QVQLVESGGGLVQPGGSLRLSCATSGITLDYYAIGWFLQVPGKEREGVACMRNWDGSTLYAPSVKGRFTISRDADKEVAYLEMNSLKSEDTGVYYCAAGPLPPGHSCRIPTPLGYDDWGQGTQVTVSS
B12: Re32E06 (VHH)
VHH: QVQLVESGGGLVQPGGSLRLSCETSGITLDYYAIGWFLQAPGKEREGVACMRNWDGSTLYAPSVKGRFTISRDNDKKAVYLEMNSLKSEDTGVYYCAAGPLPPGHSCRIPTPLGYDDWGQGTQVTVSS
B13: Re32G01 (VHH)
VHH: QVQLVESGGGLVQPGGSLRLSCETSGITLDYYAIGWFLQAPGKDREGVACMRNWDGSTLYAPSVKGRFTISRDADKEVAYLEMNSLKSEDTGVYYCAAGPLPPGHSCRIPTPLGYDDWGQGTQVTVSS
B14: Re31A08 (VHH)
VHH: QVQLVESGGGLVQPGGSLRLSCAASGITLDYYSIGWFRQAPGKEREGVSCTSSRDDSTDYADSVKGRFTISRDNAKNSVYLQMNSLNPEDTAVYYCALTPATYYSGRYYFQCPPHGMDYWGKGTLVTVSS
B15: Re32D03 (VHH)
VHH: QVQLVESGGGLVQPGGSLRLSCAISGITLDYYAVGWFLQAPGKEREGISCMRNWDGRTVYAPSVKGRFTISSDNAKKMVYLEMDNLKSEDTGVYYCAAGPLPPGISCRIPTPLGYDDWGQGTQVTVSS

Biological target: T1, wt_RBD-AviHis (SARS-CoV-2 (original Wuhan strain))
Test: BLI: biotinylated wild type RBD immobilised, VHH in solution, mass transport fit

Binder | Kd
B1 | ≤ 0.01 nM
B2 | ≤ 0.01 nM

Biological target: T1, wt_RBD-AviHis
Test: BLI (Octet), biotinylated RBD on streptavidin biosensors, VHH in solution

Binder | Kd
B3 | ≤ 0.01 nM
B4 | ≤ 0.01 nM
B1 | ≤ 0.01 nM
B5 | ≤ 0.01 nM
B6 | 0.12 nM
B7 | 0.04 nM
B8 | ≤ 0.01 nM
B9 | 0.004 nM
B10 | ≤ 0.01 nM
B11 | ≤ 0.01 nM
B12 | ≤ 0.01 nM
B13 | 0.016 nM
B14 | 0.06 nM
B15 | ≤ 0.01 nM

Biological target: T1, wt_RBD-AviHis
Test: BLI: biotinylated wild type RBD immobilised, VHH in solution, mass transport fit
Remark: another data set of the same source

Binder | Kd
B3 | 0.03 nM
B15 | ≤ 0.01 nM
